In PMC6385590 (European journal of immunology, 2015):

Target: T1, interferon regulatory factor 8 (IRF8) (human (endogenous in CAL-1 and primary …, UniProt Q02556 1-426))
T1 sequence (looked up): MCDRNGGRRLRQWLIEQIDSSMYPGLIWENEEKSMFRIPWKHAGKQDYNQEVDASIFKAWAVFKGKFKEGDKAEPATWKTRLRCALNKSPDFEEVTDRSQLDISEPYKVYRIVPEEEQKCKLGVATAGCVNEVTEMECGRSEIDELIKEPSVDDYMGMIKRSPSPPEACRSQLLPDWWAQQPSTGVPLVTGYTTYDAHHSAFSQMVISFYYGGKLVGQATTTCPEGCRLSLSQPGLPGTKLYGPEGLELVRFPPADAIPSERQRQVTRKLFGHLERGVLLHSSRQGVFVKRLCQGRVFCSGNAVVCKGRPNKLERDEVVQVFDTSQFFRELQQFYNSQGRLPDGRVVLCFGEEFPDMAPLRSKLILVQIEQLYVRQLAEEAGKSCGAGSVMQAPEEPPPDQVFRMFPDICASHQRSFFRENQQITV
Assay: proximity ligation

fold of nuclear PLA colocalization over unstimulated cells (after 1 h CpG ODN): > 3 fold
B1: interferon regulatory factor 5 (IRF5) (natural protein, UniProt Q13568 1-498, looked up)
chain: MNQSIPVAPTPPRRVRLKPWLVAQVNSCQYPGLQWVNGEKKLFCIPWRHATRHGPSQDGDNTIFKAWAKETGKYTEGVDEADPAKWKANLRCALNKSRDFRLIYDGPRDMPPQPYKIYEVCSNGPAPTDSQPPEDYSFGAGEEEEEEEELQRMLPSLSLTEDVKWPPTLQPPTLRPPTLQPPTLQPPVVLGPPAPDPSPLAPPPGNPAGFRELLSEVLEPGPLPASLPPAGEQLLPDLLISPHMLPLTDLEIKFQYRGRPPRALTISNPHGCRLFYSQLEATQEQVELFGPISLEQVRFPSPEDIPSDKQRFYTNQLLDVLDRGLILQLQGQDLYAIRLCQCKVFWSGPCASAHDSCPNPIQREVKTKLFSLEHFLNELILFQKGQTNTPPPFEIFFCFGEEWPDRKPREKKLITVQVVPVAARLLLEMFSGELSWSADSIRLQISNPDLKDRMVEQFKELHHIWQSQQRLQPVAQAPPGAGLGVGQGPWPMHPAGMQ
